This is an account of results in PMC6402988 (Nature structural & molecular biology, 2019).

One test concerns the target SUDV GP ectodomain (Sudan ebolavirus; strain not named for …, UniProt Q66814). As to the kind of experiment: ELISA. On the technique in general: An ELISA detects its analyte on a solid surface through an enzyme-linked reagent.
Another test has as its target rVSV-EBOV GP (wild type) (Zaire ebolavirus (EBOV), UniProt Q05320). The experiment in a line: ELISA.

Numbering of substitutions follows the chain as printed.

B1: ADI-15946 mutant Y100AA (antibody, V domains shown)
VH: EVQLVESGGGLVKPGGSLRLSCAASGFTFSNAWMSWVRQAPGKGLEWVGRIKSKTDGGTIDYAAPVKGRFTISRDDSKNTVYLQMTSLKTEDTAVYYCTTYTEDMRAFDWLLRGGETFDYWGQGTLVTVSS
VL: DIRLTQSPSSLSASVGDRVTITCRASHYISTYLNWYQQKPGKAPKLLIYAASNLQSGVPSRFSGSGFGTDFSLTISSLQPEDFATYHCQQSYSTPGRYTFGQGTKVEIK
In the case of B1, the binding result with SUDV GP ectodomain is “binds”.

B2: ADI-15946 IgG (antibody, V domains shown)
VH: B1 VH with A107Y
VL: B1 VL
In the case of B2, the binding result in the test with rVSV-EBOV GP (wild type) and with SUDV GP ectodomain was “binds” throughout.

B3: 46M1 (antibody, V domains shown)
VH: B1 VH with R106A, A107Y
VL: B1 VL
Take B3: the binding result with SUDV GP ectodomain is recorded as “binds”.
